From patent US6570069B1, “Nucleic acids encoding plant inhibitors of apoptosis and transgenic cells and plants expressing them” (priority 2000, dated 2003) come the findings set out here.

“Also recorded” adds a separate entry of the source.

To fix the notation:
T1: CpIAP (Cydia pomonella granulosis virus, UniProt P41436)
T1 construct: The complete ORF of CpIAP was subcloned into the EcoRI-EcoRV sites of pcDNA3-myc or the EcoRI-SalI sites in pGEX4T-1; GST (N); made in house; host or cells: E. coli BL21 (DE3) containing pT-Trx
T1 sequence (P41436 1-275): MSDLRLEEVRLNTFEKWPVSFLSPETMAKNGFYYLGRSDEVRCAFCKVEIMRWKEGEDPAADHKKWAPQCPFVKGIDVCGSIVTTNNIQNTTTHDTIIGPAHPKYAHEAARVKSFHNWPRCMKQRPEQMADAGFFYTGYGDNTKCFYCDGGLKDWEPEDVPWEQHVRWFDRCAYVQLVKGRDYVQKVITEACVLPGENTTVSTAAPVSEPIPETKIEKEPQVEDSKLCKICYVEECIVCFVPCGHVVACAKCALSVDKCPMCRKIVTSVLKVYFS

T2: [35S]pro-caspase-9 (mammalian, UniProt P55211 1-416, limits assumed)
T2 construct: also called in vitro-translated pro-caspase-9
T2 sequence (looked up): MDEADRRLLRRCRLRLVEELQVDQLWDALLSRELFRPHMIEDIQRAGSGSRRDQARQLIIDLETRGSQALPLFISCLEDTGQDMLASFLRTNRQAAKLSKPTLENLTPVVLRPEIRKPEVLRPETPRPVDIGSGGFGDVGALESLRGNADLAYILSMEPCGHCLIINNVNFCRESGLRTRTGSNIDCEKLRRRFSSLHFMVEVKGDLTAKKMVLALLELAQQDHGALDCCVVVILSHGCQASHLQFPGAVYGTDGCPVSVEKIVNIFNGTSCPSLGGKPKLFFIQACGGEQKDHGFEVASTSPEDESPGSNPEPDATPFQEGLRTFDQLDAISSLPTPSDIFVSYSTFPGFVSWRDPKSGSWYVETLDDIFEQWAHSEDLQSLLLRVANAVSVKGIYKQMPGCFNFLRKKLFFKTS

T3: pro-caspase-9 (Homo sapiens, UniProt P55211)
T3 construct: host or cells: cell-free in vitro transcription/translation
T3 sequence (P55211 1-416): T2 sequence (looked up)

T4: recombinant purified caspase-7 (mammalian, UniProt P55210 24-303)
T4 construct: also called caspases-7
T4 sequence: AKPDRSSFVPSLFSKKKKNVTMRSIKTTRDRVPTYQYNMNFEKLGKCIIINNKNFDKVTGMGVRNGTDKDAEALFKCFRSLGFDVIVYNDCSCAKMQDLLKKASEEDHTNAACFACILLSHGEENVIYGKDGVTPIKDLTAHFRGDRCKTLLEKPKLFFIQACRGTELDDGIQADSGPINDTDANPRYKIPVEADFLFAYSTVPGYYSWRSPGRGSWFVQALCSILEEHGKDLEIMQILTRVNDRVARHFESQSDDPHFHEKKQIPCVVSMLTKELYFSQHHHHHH

B1: GST-XIAP-BIR1 (other, human, UniProt P98170 1-123, looked up, not shown: a dimerising Fc or GST)
chain: MTFNSFEGSKTCVPADINKEEEFVEEFNRLKTFANFPSGSPVSASTLARAGFLYTGEGDTVRCFSCHAAVDRWQYGDSAVGRHRKVSPNCRFINGFYLENSATQSTNSGIQNGQYKVENYLGS
notes: domain: BIR1; also called BIR1 domain of XIAP
B2: XIAP-BIR1: control protein consisting of the BIR1 domain of XIAP (protein)
chain: B1 chain
modifications: left off: a dimerising Fc or GST
B3: GST-CpIAP (other)
chain: T1 sequence (P41436 1-275)
notes: range 1-275
B4: recombinant purified caspase-3 (enzyme, mammalian)
chain: SGISLDNSYKMDYPEMGLCIIINNKNFHKSTGMTSRSGTDVDAANLRETFRNLKYEVRNKNDLTREEIVELMRDVSKEDHSKRSSFVCVLLSHGEEGIIFGTNGPVDLKKITNFFRGDRCRSLTGKPKLFIIQACRGTELDCGIETDSGVDDDMACHKIPVEADFLYAYSTAPGYYSWRNSKDGSWFIQSLCAMLKQYADKLEFMHILTRVNRKVATEFESFSFDATFHAKKQIPCIVSMLTKELYFYHHHHHHH
notes: also called caspases-3
B5: GST-SfIAP (other, not shown: a dimerising Fc or GST)
chain: MWSCSLPCWNTKKSGLQMDITKVASNGSSSTLTLFKSGSLEAKIRPLAPLMLPTPSYDSNAGSPSLSPSTPCSSSSFSIDKTDNHDTFGFSADTVDMRKEDERMKTFEKWPVSFLSGEQLARNGFYYLGRRDEARCAFCKVEIMRWVEGDDPAKDHQRWAPQCPFVRKLNGTAAADTGSSGQDECGARAAPSGTSPPRMAGPVHPRYASEAARLRSFKDWPRCMRQKPEELAEAGFFYTGQGDKTKCFYCDGGLKDWENHDVPWEQHARWFDRCAYVQLVKGREYVQKVISEACEVSASEAERDVAPARTAEPSPPAEAPENSVDDSKLCKICYAEERNVCFVPCGHVVACAKCALAADKCPMCRRTFQNAVRLYFS
notes: also called recombinant SfIAP; recombinant-purified SfIAP

For assay [1], the target named is GST-SfIAP (Spodoptera frugiperda). Briefly: cell-based or functional assay.
The next assay deals with SfIAP. Briefly: Grim peptide effect on SfIAP-mediated suppression of caspases in cyto c-stimulated cell extracts. It is filed as biochemical, Spodoptera frugiperda. To be noted: cyto c-stimulated cytosol extracts. The protocol:
(§1) Caspase activity was assayed by release of 7-amino-4-trifluoromethyl-coumarin (AFC) from Ac-DEVD or Ac-LEHD-containing synthetic peptides (Calbiochem) using continuous-reading instuments as described (Quan, L. T. et al., (1995) J. Biol. Chem. 270:10377-10379).
(§2) Cytosolic extracts were prepared as described (Deveraux, Q., Takahashi, R., Salvesen, G. S. & Reed, J. C. (1997) Nature 388, 300-303) using human embryonic kidney (HEK) 293 cells. Cells were washed with ice-cold buffer A (20 mM HEPES pH 7.5, 10 mM KCl, 1.5 mM MgCl2, 1 mM EDTA and 1 mM DTT), suspended in 1 volume of buffer A, incubated on ice for 20 mins, and then disrupted by 15 passages through a 26-gauge needle. Cell extracts were purified by centrifugation at 15000 g for 12 mins and supernatants were stored at −80 ° C. For initiating caspase activation, either 100 nM of purified recombinant caspase-8 or 1 μM horse heart cytochrome c (Sigma) together with 1 mM dATP was added to extracts (Deveraux, Q. L., et al., (1998) EMBO J. 17, 2215-2223).
It has been proposed that Drosophila apoptosis-inducers such as Grim function as negative regulators of IAPs (Deveraux, Q. & Reed, J. C. (1998) Genes Dev. 13, 239-252; Wang, S. et al. (1999) Cell 98, 453-463). […]

The next assay addresses T1, CpIAP. Briefly: Grim peptide effect on CpIAP inhibition of mammalian caspases in vitro. It is filed as biochemical, baculovirus.
A further assay has as its target T2, [35S]pro-caspase-9. The assay can be described thus: GST pull-down of in vitro-translated [35S]pro-caspase-9 on glutathione-Sepharose, SDS-PAGE and autoradiography.
In another assay the target is T3, pro-caspase-9. The assay can be described thus: GST pull-down binding of [35S]-pro-caspase-9. To be noted: GST fusion protein on glutathione-Sepharose. Further details: species or system mammalian. The protocol:
[^35S]Pro-caspase-9 was in vitro transcribed and translated in the presence of [^35S]L-methionine using TNT kit from Promega. Protein were desalted and exchanged into buffer (20 mM HEPES pH 7.5, 10 mM KCl, 1.5 mM MgCl2, 1 mM EDTA and 1 mM DTT) with Bio-spin P-6 columns (Bio-Rad). […] After incubation at 4 ° C. for 1 hour, beads were removed by centrifugation and washed twice with 0.5 ml of 50 mM Tris (pH 7.5), 150 mM NaCl, 2 mm DTT before analysis by SDS-PAGE and autoradiography.

Assay [2] relates to caspase-3 and similar DEVD-cleaving proteases in cell extracts treated with cyto c. Briefly: Cell-free caspase activation induced by cyto c in HEK 293 cytosolic extracts. The assay is classed as biochemical, human. To be noted: recombinant protein, cell extracts treated with cyto c. The protocol:
as §1, §2
To further explore the mechanisms by which SfIAP and CpIAP inhibit mammalian apoptosis, a cell-free system in which exogenously added active caspase-8 or cyto c induces activation of caspase-3 and similar proteases, as measured by hydrolysis of Ac-DEVD-AFC (Quan, L. T. et al., (1995) J. Biol. Chem. 270, 10377-10379) was used. Caspase-8 and cyto c trigger the same apoptosis pathways in extracts which are activated by Fas and Bax in intact cells.

Assay [3] deals with T4, recombinant purified caspase-7. The assay can be described thus: in vitro binding with recombinant purified caspase; method not described.
The target in the assay “GST-CpIAP” is B3. Described as above.
Assay [4] addresses recombinant active caspase-9 (caspase-9 lacking the CARD domain) (mammalian), P55211. Briefly: cell-based or functional assay.
The target in assay [5] is B4. The assay can be described thus: in vitro binding with recombinant purified caspase; method not described.

“Grim peptide (IAP-binding domain of Grim, first 18 amino acids) (from UniProt Q24570 1-18)” displayed a restoration of DEVD-cleaving caspase activity in cyto c-stimulated cell extracts suppressed by SfIAP in [1] of 5 fold excess.

As for “Grim peptide: peptide corresponding to the IAP-binding domain of Grim (first 18 amino acid of Grim) (MAIAYFIPDQAQLLARSY; UniProt Q24570 1-18, looked up, fragment)”, in the assay with SfIAP, the “effect on SfIAP inhibition of cyto c-induced activation of DEVD-cleaving caspases” value was “abrogated this inhibitory effect of SfIAP in a concentration-dependent manner; also recorded: negate the ability of SfIAP and CpIAP to inhibit mammalian caspases”; the “excess of peptide relative to SfIAP resulting in complete restoration of caspase activity” value was found to be 5 fold. In the assay with CpIAP, the “effect on ability of CpIAP to inhibit mammalian caspases” value was “negate the ability of SfIAP and CpIAP to inhibit mammalian caspases”.

In the case of B1, in [35S]pro-caspase-9, the binding result is “no binding”.

As to B2, in the assay with pro-caspase-9, the “binding to pro-caspase-9 (autoradiography)” value is “failed to bind caspase-9”. Besides, the “effect on hydrolysis of Ac-DEVD-AFC (caspase activity)” value in [2] is listed as “did not interfere with caspase activity”.

As for B3, the binding result in [3] was “no binding”.

With B4, the binding result in the assay with GST-CpIAP is “no binding”.

Take B5: in assay [4], the molar-excess relative to caspase-9 which produced ~50% inhibition of protease activity (Ac-LEHD-AFC substrate) (fold molar excess) came to 8. For the same molecule, the binding result in [5] and in assay [3] was “no binding” in each case.
